Assay in all cases: SPR
On the technique in general: Surface plasmon resonance follows binding to a sensor surface in real time, without labels.

For experiment [1], the target named is human MMP-12 (human).
Experiment [2] deals with human MMP-12 (human). This is another data set of the same source.
The target in the next experiment is mouse MMP-12 (mouse).

Like-named read-outs stand apart in the source and are kept apart here.

Sequence of human MMP-12 (human) (B2R9X8 whole entry): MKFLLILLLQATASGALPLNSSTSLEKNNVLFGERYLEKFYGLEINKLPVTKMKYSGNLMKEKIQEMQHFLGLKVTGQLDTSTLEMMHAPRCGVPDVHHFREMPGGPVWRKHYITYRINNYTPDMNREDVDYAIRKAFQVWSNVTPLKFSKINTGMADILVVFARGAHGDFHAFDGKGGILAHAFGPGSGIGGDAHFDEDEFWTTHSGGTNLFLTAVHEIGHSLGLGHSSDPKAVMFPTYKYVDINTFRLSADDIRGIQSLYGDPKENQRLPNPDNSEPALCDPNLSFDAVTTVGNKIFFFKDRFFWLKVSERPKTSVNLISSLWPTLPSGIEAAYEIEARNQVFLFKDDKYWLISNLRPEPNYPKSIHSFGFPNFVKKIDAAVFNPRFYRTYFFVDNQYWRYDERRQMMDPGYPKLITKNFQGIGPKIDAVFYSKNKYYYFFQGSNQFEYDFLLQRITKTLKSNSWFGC
Sequence of mouse MMP-12 (mouse) (chain, as listed by the source): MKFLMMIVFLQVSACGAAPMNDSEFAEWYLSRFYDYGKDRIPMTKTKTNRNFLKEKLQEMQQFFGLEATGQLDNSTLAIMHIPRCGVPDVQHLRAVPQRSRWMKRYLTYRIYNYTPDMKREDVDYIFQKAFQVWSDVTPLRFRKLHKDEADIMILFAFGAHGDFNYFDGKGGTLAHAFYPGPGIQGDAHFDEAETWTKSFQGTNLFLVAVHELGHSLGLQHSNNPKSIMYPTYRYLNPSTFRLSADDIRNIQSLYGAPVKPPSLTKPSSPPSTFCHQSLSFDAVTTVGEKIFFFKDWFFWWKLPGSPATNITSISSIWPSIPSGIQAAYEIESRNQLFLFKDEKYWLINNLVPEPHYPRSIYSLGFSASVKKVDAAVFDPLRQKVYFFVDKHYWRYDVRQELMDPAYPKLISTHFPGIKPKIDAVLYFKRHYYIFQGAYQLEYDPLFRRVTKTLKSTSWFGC

B1: 539B-M0121-E07 (antibody, V domains shown)
VH: EVQLLESGGGLVQPGGSLRLSCAASGFTFSWYGMHWVRQAPGKGLEWVSGIVSSGGETFYADSVKGRFTISRDNSKNTLYLQMNSLRAEDTAVYYCAKDIRGVFLSGLFDHWGRGTLVTVSS
VL: DIQMTQSPSSLSASVGDRVTITCRANQSIYTYLNWYQQKPGKAPELLIYAASSLQSGVPSRFSGSGSGTDFTLTISSLQPEDFATYYCQQAGIFGQGTKLEIK
In the experiment with human MMP-12 [1], B1 had a Kd of 0.197 nM.

B2: 539B-M0130-C12 (antibody, V domains shown)
VH: EVQLLESGGGLVQPGGSLRLSCAASGFTFSEYNMHWVRQAPGKGLEWVSGIVPSGGLTHYADSVKGRFTISRDNSKNTLYLQMNSLRAEDTAVYYCARDIRGAYSAGIFDYWGRGTLVTVSS
VL: DIQMTQSPSSLSASVGDRVTITCRANQSIYTYLNWYQQKPGKAPELLIYAASSLQSGVPSRFSGSGSGTDFTLTISSLQPEDFATYYCQQAGIFGQGTKLEIK
In the case of B2, the dissociation constant (Kd) with human MMP-12 [2] came out at 0.68 nM.

B3: 539B-M0131-A06 (antibody, V domains shown)
VH: EVQLLESGGGLVQPGGSLRLSCAASGFTFSWYWMHWVRQAPGKGLEWVSGISPSGGMTMYADSVKGRFTISRDNSKNTLYLQMNSLRAEDTAVYYCARDIVGPYSAGLFDYWGRGTLVTVSS
VL: DIQMTQSPSSLSASVGDRVTITCRANQSIYTYLNWYQQKPGKAPELLIYAASSLQSGVPSRFSGSGSGTDFTLTISSLQPEDFATYYCQQAGIFGQGTKLEIK
For B3, the koff with mouse MMP-12 stood at 4.84e-05 s⁻¹.

B4: 539B-M0065-H05 IgG (antibody, V domains shown)
VH: EVQLLESGGGLVQPGGSLRLSCAASGFTFSYYGMGWVRQAPGKGLEWVSVISSSGGFTFYADSVKGRFTISRDNSKNTLYLQMNSLRAEDTAVYYCAKDIRGAYSSGLFDYWGRGTLVTVSS
VL: DIQMTQSPSSLSASVGDRVTITCRANQSIYTYLNWYQQKPGKAPELLIYAASSLQSGVPSRFSGSGSGTDFTLTISSLQPEDFATYYCQQAGIFGQGTKLEIK
B4: the Kd with human MMP-12 [2] was determined as 2.2 nM.

B5: 539B-M0118-F11 (antibody, V domains shown)
VH: EVQLLESGGGLVQPGGSLRLSCAASGFTFSYYNMHWVRQAPGKGLEWVSGISPSGGTTFYADSVKGRFTISRDNSKNTLYLQMNSLRAEDTAVYYCARDITGAYSAGLFDLWGRGTLVTVSS
VL: DIQMTQSPSSLSASVGDRVTITCRANQSIYTYLNWYQQKPGKAPELLIYAASSLQSGVPSRFSGSGSGTDFTLTISSLQPEDFATYYCQQAGIFGQGTKLEIK
B5: the off-rate (koff) with mouse MMP-12 is 0.000193 s⁻¹. Further, in the experiment with human MMP-12 [1], the Kd turned out to be 1.17 nM.

What is called Kd is the free concentration of one partner at which half of the binding sites on the other are occupied at equilibrium, for simple one-to-one binding. Low values mean a tighter complex, high ones a looser complex. In general, koff refers to the rate constant with which the complex falls apart.

For the origin of these results see patent US20090311183 (published 2009).
